Measurements published in US20030124704A1 (YALE UNIVERSITY, published 2003).

Target: Alkaline phosphatase-hNogo-A(1055-1120) (human, UniProt P05187 23-511)
Assay: AP-fusion ligand binding to COS-7 cells transfected with myc-mNgR3; expression checked by anti-myc staining and immunoblot
From the text: The mouse NgR3 cDNA was amplified by PCR from mouse adult brain cDNA, from the signal sequence to the stop codon, and ligated into the pSecTag2 vector such that the vector encodes a signal sequence followed by a myc tag followed by the mature mNgR3 sequence. This plasmid was transfected into COS07cells, and expression of a myc-tagged protein of the predicted size was verified by immunoblot analysis.

Chain of Alkaline phosphatase-hNogo-A(1055-1120) (P05187 other isoform, or with tags, fused parts or gaps): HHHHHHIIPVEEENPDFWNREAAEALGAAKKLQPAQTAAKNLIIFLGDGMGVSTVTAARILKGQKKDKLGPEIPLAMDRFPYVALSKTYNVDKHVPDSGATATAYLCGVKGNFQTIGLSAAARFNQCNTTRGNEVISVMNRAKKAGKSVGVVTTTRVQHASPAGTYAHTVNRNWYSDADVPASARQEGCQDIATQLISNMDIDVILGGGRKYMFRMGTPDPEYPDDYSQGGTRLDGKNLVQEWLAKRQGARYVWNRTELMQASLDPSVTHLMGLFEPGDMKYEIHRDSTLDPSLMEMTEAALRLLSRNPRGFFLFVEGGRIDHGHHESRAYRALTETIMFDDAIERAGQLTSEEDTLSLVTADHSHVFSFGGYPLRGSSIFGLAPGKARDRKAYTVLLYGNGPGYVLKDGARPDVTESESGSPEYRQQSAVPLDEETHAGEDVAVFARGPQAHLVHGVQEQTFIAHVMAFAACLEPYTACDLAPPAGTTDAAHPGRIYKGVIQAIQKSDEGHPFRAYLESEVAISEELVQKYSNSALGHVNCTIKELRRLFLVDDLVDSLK

- binding result: no binding
B1: myc epitope-tagged mouse NgR3 (mNgR3) expressed on COS-7 cells (receptor, not shown: small tags and cut ends)
chain: CPRDCVCYPAPMTVSCQAHNFAAIPEGIPEDSERIFLQNNRITFLQQGHFSPAMVTLWIYSNNITFIAPNTFEGFVHLEELDLGDNRQLRTLAPETFQGLVKLHALYLYKCGLSALPAGIFGGLHSLQYLYLQDNHIEYLQDDIFVDLVNLSHLFLHGNKLWSLGQGIFRGLVNLDRLLLHENQLQWVHHKAFHDLHRLTTLFLFNNSLTELQGDCLAPLVALEFLRLNGNAWDCGCRARSLWEWLRRFRGSSSAVPCATPELRQGQDLKLLRVEDFRNCTGPVSPHQIKSHTLTTSDRAARKEHHPSHGASRDKGHPHGHPPGSRSGYKKAGKNCTSHRNRNQISKVSSGKELTELQDYAPDYQHKFSFDIMPTARPKRKGKCARRTPIRAPSGVQQAS
notes: The cDNA was amplified from mouse adult brain; Any processing of the C-terminal GPI signal is not described; also called myc-NgR3
